The chains are these.
B1: QP14581454 (antibody, human IgG1, kappa, V domains shown)
VH: QVQLVQSGAEVKKPGASVKVSCKASGYTFTNYFVHWVKQAPGQGLEWIGYINPYNDDTKYNEKFKGKATLTRDTSTSTVYMELSSLRSEDTAVYYCLSLRFFAYWGQGTLVTVSS
VL: DIVMTQSPDSLAVSLGERATISCKSSQSLLNSGNQKNYLTWYQQKPGQAPKLLIYWASTRESGVPDRFSGSGSGTDFTLTISSVQAEDVAVYFCQNDYSYPLTFGGGTKVEIKR
notes: Humanized from QP201202
B2: QP14581453 (antibody, human IgG1, kappa, V domains shown)
VH: B1 VH
VL: B1 VL with V84L, F93Y
notes: Humanized from QP201202
B3: QP14561454 (antibody, human IgG1, kappa, V domains shown)
VH: B1 VH with K38R, I48M, K67R, A68V, L70M
VL: B1 VL
notes: Humanized from QP201202
B4: QP190191 (antibody, human IgG1, V domains shown)
VH: EVKLVESGGGLVKPGGSLKLSCAASGFTFSNYAMSWVRQTPEKRLEWVASIISGGRTYYLDSEKGRFTISRDNARNNLYLQMSSLRSEDTAMYYCTRIYYGNSFDYWGQGTTLTVSS
VL: DIVMTQSPSSQTVTAGEKVTMSCKSSQSLLNSGNQKNYLTWYQQKPGQPPKLLIYWASTRESGVPDRFTGSGSGTDFTLTISNMQAEDLAVYYCQNDYSYPFTFGSGTKLEIK
notes: Chimeric; also called 36A2; mouse-derived chimeric antibody QP190191
B5: QP14371435 (antibody, human IgG1, kappa, V domains shown)
VH: EVQLVESGGGLVKPGGSLRLSCAASGFTFSNYAMSWVRQAPGKGLEWVASIISGGRTYYLDSEKGRFTISRDNAKNSLYLQMNSLRAEDTAVYYCTRIYYGNSFDYWGQGTLVTVSS
VL: B1 VL with A49P, S69T, V84L, F93Y, L102F, G106Q, V110L
notes: Humanized from QP190191
B6: QP14361435 (antibody, human IgG1, kappa, V domains shown)
VH: B5 VH with A49S
VL: B1 VL with A49P, S69T, V84L, F93Y, L102F, G106Q, V110L
notes: Humanized from QP190191

This note sets out measurements from patent US20230183352A1 (published 2023).

Numbering of substitutions follows the chain as printed.

One assay has as its target T1, Claudin 18.2 (CLDN18.2), expressed on CHOS-CLDN 18.2 / HEK293-CLDN 18.2 / HCC827-CLDN 18.2 cells (human, UniProt P56856-2 1-261).
T1 construct: whole, on cells; The species is not repeated for the CHOS-CLDN 18.2 cells; also called claudin-18A2
Briefly: FACS, CHOS-CLDN18.2 cells, 5 µg/ml. (In general: In flow cytometry, cells or beads pass a laser one at a time.)
Description: (§1) The initial concentration of the antibody was 20 μg/ml, it was diluted at 1:4, and incubated at 4° C. for 60 min.
As for B1, the FACS reading was 73700.
On the same count and under the same terms, the figure for B2 is 83000; for B3 it is 114000.

The target of the next assay is T1, Claudin 18.2 (CLDN18.2), expressed on …. Briefly: FACS, CHOS-CLDN18.2 cells, 1.250 µg/ml.
Description: as §1
For the molecule B1, the FACS reading stood at 56100.
Same read-out and setting: the figure for B2 is 91400; for B3 it is 107000.

The next assay shares this target. Nature of the assay: FACS, CHOS-CLDN18.2 cells, 0.313 µg/ml.
Description: as §1
Molecule B4 displayed an FACS reading of 54200.
Turning to B5, the FACS reading is 72000.
Still for that read-out and setting: as for B6, the figure is 75900.

For a further assay the target is unchanged. Briefly: FACS, MFI on CHOS-CLDN18.2 over MFI on CHOS-CLDN18.1, 10 µg/ml.
Description: (§2) The initial concentration of the antibody was 20 μg/mkit was diluted at 1:4, and incubated at 4° C. for 60 min.
For the molecule B4, the “CLDN18.2/CLDN18.1 (MFI ratio)” value stood at 423.
On the same count and under the same terms, the figure for B5 is 497.
Still for that read-out and setting: as for B1, the figure is 506; as for B2, 581; as for B3, 430.
Same read-out and setting: the figure for B6 is 550.

The target is the same in a further assay. Briefly: FACS, CHOS-CLDN18.2 cells, 1.250 µg/ml. The source holds these as a separate data set.
Description: as §1
As to B4, the FACS reading was determined as 114000.
On the same count and under the same terms, the figure for B5 is 145000.
Same read-out and setting: the figure for B6 is 141000.

For a further assay the target is unchanged. Briefly: FACS, CHOS-CLDN18.2 cells, 0.313 µg/ml. The source holds these as a separate data set.
Description: as §1
B1 gave an FACS reading of 30800.
On the same count and under the same terms, as for B2, the figure is 33300; as for B3, 44800.

A further assay has the same target. Briefly: FACS, CHOS-CLDN18.2 cells, 0.005 µg/ml.
Description: as §1
Take B1: the FACS reading is 2370.
In turn, B2 displayed an FACS reading of 2420.
Same read-out and setting: as for B3, the figure is 2470.

A further assay has the same target. Nature of the assay: FACS, CHOS-CLDN18.2 cells, 0.078 µg/ml.
Description: as §1
Regarding B4, the FACS reading was found to be 15700.
Turning to B5, the FACS reading stood at 18000.
The same measure, in the same setting: the figure for B6 is 23600.

The next assay has the same target. Nature of the assay: FACS, CHOS-CLDN18.2 cells.
Description: as §1
Take B4: the EC50 stood at 0.354 µg/mL and the max was 148000.
The molecule B5 displayed an EC50 of 0.38 µg/mL and a max of 197000.
For B6, in that order: 0.466 µg/mL and 182000.

The target is the same in the next assay. Briefly: FACS, CHOS-CLDN18.2 cells, 5 µg/ml. This is another data set of the same source.
Description: as §1
Molecule B4 showed an FACS reading of 148000.
B5: the FACS reading came to 197000.
As for B6, the FACS reading was found to be 182000.

A further assay shares this target. Briefly: FACS, CHOS-CLDN18.2 cells, 0 µg/ml (background).
Description: as §1
On to B4, for which the FACS reading amounted to 729.
Regarding B5, the FACS reading came to 732.
The molecule B6 returned an FACS reading of 713.

A further assay has the same target. Nature of the assay: FACS, CHOS-CLDN18.2 cells, 20 µg/ml.
Description: as §1
B1 yielded an FACS reading of 58600.
On the same count and under the same terms, as for B2, the figure is 104000.
Same read-out and setting: the figure for B3 is 146000.

For the next assay the target is unchanged. Briefly: FACS, CHOS-CLDN18.2 cells, 0 µg/ml (background). This is another data set of the same source.
Description: as §1
With B1, the FACS reading worked out at 732.
The same measure, in the same setting: the figure for B2 is 732; for B3 it is 732.

For a further assay the target is unchanged. Briefly: FACS, CHOS-CLDN18.2 cells. This is another data set of the same source.
Description: as §1
Turning to B1, the EC50 was found to be 0.363 µg/mL and the max was found to be 73700.
B2 returned a half-maximal effective concentration (EC50) of 0.425 µg/mL and a max of 104000.
B3 came in with an EC50 of 0.573 µg/mL and a max of 146000.

A further assay shares this target. Briefly: FACS, CHOS-CLDN18.2 cells, 0.020 µg/ml.
Description: as §1
For the molecule B1, the FACS reading turned out to be 4470.
Same read-out and setting: the figure for B2 is 5920.
The same measure, in the same setting: as for B3, the figure is 6390.

Another assay shares this target. Briefly: FACS, CHOS-CLDN18.2 cells, 10 µg/ml.
Description: as §2
B4 returned an MFI of 450000.
Same read-out and setting: as for B5, the figure is 512000.
The same measure, in the same setting: the figure for B1 is 502000; for B2 it is 554000; for B3 it is 477000.
On the same count and under the same terms, the figure for B6 is 504000.

The target is the same in another assay. Briefly: FACS, CHOS-CLDN18.2 cells, 20 µg/ml. This is another data set of the same source.
Description: as §1
With B4, the FACS reading turned out to be 88700.
The molecule B5 yielded an FACS reading of 134000.
Same read-out and setting: the figure for B6 is 183000.

The target is the same in another assay. Briefly: FACS, CHOS-CLDN18.2 cells, 0.005 µg/ml. This is another data set of the same source.
Description: as §1
B4 registered an FACS reading of 2840.
The molecule B5 showed an FACS reading of 4130.
Molecule B6 came in with an FACS reading of 3390.

A further assay has the same target. Nature of the assay: FACS, CHOS-CLDN18.2 cells, 0.020 µg/ml. This is another data set of the same source.
Description: as §1
Turning to B4, the FACS reading came out at 8000.
The same measure, in the same setting: as for B5, the figure is 10200.
Consider B6, for which the FACS reading came to 8520.

A further assay shares this target. Nature of the assay: FACS, CHOS-CLDN18.2 cells, 0.078 µg/ml. The source holds these as a separate data set.
Description: as §1
Consider B1, for which the FACS reading worked out at 11500.
B2 registered an FACS reading of 13600.
Same read-out and setting: as for B3, the figure is 13400.

Broadly, the EC50 is the concentration needed to bring the measured effect to its halfway point. A higher EC50 goes with a need for much substance.
